# T1: recombinant cynomolgus C1r2s2 tetramer (cynomolgus monkey, limits assumed)
# T1 construct: also called cyC1r2s2; monkey C1r2s2
# T1 chain 1: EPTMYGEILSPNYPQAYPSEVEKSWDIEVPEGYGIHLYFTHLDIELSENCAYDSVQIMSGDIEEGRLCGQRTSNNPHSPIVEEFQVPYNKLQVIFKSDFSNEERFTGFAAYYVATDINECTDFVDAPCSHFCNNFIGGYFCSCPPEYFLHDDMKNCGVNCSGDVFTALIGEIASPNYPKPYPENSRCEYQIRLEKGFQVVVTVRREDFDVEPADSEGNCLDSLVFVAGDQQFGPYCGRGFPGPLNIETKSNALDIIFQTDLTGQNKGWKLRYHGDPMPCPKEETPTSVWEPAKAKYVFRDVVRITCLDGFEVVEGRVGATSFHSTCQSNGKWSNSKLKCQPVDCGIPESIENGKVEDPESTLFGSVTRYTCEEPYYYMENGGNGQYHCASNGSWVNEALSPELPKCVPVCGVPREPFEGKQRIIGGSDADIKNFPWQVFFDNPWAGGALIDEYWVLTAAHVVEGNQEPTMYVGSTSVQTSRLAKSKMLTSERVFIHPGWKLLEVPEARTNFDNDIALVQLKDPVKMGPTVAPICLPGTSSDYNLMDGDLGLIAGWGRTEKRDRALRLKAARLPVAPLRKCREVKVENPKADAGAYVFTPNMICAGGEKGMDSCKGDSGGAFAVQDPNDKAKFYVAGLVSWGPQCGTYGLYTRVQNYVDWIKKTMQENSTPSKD
# T1 chain 2: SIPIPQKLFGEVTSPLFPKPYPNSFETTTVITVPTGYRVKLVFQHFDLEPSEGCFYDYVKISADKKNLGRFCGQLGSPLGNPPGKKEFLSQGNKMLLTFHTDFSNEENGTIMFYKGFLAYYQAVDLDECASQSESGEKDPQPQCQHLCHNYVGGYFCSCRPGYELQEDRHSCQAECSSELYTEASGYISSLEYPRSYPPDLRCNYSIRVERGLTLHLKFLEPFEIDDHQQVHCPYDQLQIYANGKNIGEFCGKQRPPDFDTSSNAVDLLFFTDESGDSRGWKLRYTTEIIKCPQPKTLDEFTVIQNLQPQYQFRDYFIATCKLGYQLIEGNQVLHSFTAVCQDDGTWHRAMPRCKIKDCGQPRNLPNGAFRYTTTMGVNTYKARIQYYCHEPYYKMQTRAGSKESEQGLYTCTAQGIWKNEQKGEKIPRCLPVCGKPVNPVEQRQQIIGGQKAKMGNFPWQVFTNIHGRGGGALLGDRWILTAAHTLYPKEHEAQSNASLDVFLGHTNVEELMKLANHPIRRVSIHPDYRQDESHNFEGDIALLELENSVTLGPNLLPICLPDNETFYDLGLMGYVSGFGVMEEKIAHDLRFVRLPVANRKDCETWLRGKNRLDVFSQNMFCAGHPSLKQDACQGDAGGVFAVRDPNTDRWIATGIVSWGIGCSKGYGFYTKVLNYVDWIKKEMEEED
# T2: recombinant human C1r2s2 tetramer (human, UniProt P09871 16-688; P00736 18-705)
# T2 construct: C1s and C1r co-expressed in HEK293 and purified from the supernatant as tetramer; also called hC1r2s2
# T2 chain 1: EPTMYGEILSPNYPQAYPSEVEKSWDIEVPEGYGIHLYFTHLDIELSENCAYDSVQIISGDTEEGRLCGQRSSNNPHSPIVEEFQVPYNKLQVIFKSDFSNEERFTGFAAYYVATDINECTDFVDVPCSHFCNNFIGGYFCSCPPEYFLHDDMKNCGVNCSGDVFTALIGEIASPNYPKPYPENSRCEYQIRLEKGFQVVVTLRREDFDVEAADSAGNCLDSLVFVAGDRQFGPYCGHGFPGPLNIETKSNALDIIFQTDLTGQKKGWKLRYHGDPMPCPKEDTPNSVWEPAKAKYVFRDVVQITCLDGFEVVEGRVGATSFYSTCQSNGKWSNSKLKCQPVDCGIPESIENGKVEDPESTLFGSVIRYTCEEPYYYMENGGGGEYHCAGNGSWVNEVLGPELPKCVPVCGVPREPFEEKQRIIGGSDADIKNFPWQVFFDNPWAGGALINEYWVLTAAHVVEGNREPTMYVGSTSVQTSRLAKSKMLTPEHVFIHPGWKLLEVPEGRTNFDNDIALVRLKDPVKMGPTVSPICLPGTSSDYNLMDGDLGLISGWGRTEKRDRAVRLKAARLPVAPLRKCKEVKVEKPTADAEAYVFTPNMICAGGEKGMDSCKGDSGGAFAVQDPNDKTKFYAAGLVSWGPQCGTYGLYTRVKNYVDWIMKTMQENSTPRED
# T2 chain 2: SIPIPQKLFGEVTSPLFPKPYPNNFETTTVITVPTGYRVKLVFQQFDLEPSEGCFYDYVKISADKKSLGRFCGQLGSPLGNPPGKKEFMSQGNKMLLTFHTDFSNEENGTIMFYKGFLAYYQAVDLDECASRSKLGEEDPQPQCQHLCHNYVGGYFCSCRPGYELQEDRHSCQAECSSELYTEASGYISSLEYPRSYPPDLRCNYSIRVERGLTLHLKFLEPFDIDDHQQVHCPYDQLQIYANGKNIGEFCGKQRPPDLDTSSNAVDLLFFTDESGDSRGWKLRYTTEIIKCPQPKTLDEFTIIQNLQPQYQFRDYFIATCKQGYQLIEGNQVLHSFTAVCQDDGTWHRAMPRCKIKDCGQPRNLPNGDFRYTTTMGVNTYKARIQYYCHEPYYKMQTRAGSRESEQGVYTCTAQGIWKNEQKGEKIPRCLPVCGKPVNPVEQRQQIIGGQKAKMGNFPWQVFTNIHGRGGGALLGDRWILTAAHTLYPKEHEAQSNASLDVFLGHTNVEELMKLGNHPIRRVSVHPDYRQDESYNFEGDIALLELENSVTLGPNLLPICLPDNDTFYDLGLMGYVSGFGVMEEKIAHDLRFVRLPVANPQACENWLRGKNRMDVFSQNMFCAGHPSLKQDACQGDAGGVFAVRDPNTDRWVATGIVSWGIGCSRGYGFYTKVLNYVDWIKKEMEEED
# Columns and labels:
# [1] = target: T1, recombinant cynomolgus C1r2s2 tetramer; assay: SPR (Biacore T200), IPN009 immobilised on CM5 chip as capture antibody
# Description: (§1) The binding property of each sample at pH7.4 and pH6.0 was determined at 37° C. using BIACORE® T200 instrument (Cytiva). […] 20 mM ACES, 150 mM NaCl, 1.2 mM CaCl₂, 1 mg/mL BSA (not containing IgG), 1 mg/mL CMD, 0.05% Tween® 20, 0.005 w/v % NaN₃, pH7.4 or pH6.0 buffer was used as the running buffer. […] The antibody solution was added thereto at 30 μL/min for 120 seconds, the running buffer was then added at 30 μL/min for 180 seconds, and the dissociation constant (KD) of each antibody for hC1r2s2 and cyC1r2s2 was calculated. […] The sensor surface was regenerated every cycle, using 3 M MgCl2 (prepared in-house). The KD value was calculated using BIACORE® T200 evaluation software version 2.0 (Cytiva). The binding strengths under each pH condition were compared by dividing the KD value at pH6.0 with the KD value at pH7.4.
# [2] = target: T2, recombinant human C1r2s2 tetramer; assay: as above
# Description: as §1
# [3] = target: T1, recombinant cynomolgus C1r2s2 tetramer; assay: SPR (Biacore T200), 37 C; ratio of KD at pH 6.0 to KD at pH 7.4
# Description: as §1
# [4] = target: T2, recombinant human C1r2s2 tetramer; assay: as above
# Description: as §1
# [5] = target: T2, recombinant human C1r2s2 tetramer; assay: SPR (Biacore T200), 37 C, pH 7.4; hC1r2s2 captured by IPN009, antibody as analyte; pH 7.4, 37 C; hC1r2s2 captured by IPN009 on the chip, antibody as analyte
# Description: as §1
# [6] = target: T1, recombinant cynomolgus C1r2s2 tetramer; assay: SPR (Biacore T200), 37 C, pH 7.4; cyC1r2s2 captured by IPN009, antibody as analyte
# Description: as §1
# [7] = target: T2, recombinant human C1r2s2 tetramer; assay: SPR (Biacore T200), 37 C, pH 6.0; hC1r2s2 captured by IPN009, antibody as analyte; pH 6.0, 37 C; hC1r2s2 captured by IPN009 on the chip, antibody as analyte
# Description: as §1
# [8] = target: T1, recombinant cynomolgus C1r2s2 tetramer; assay: SPR (Biacore T200), 37 C, pH 6.0; cyC1r2s2 captured by IPN009, antibody as analyte
# Description: as §1
binding result [1],binding result [2],KD (pH 6.0)/KD (pH 7.4) [3],KD (pH 6.0)/KD (pH 7.4) [4],Kd [5],Kd [6],Kd [7],Kd [8],Binder
binds,binds,–,–,–,–,–,–,"IPN009VH2VK3-SG1148 (antibody, human IgG1, kappa, V domains shown, Anti-C1s / anti-human C1r2s2 antibody immobilised on the chip as capture reagent) VH: EVMLVESGGGLVKPGGSLRLSCAASGFTFSNYAMSWVRQAPGKGLEWVATISSGGSHTYYLDSVKGRFTISRDNSKDTLYLQMNSLRAEDTALYYCARLFTGYAMDYWGQGTLVTVSS VL: QIVLTQSPATLSLSPGERATLSCTASSSVSSSYLHWYQQKPGKAPKLWIYSTSNLASGVPSRFSGSGSGTDYTLTISSLQPEDFATYYCHQYYRLPPITFGQGTKLEIKR"
–,–,43.8,26.5,0.388 nM,0.502 nM,10.3 nM,22 nM,"COS0637pHv3-TT91R (antibody, human IgG1, V domains shown, Modified human IgG1 constant region TT91R, light chain constant region SK1) VH: QVQLVESGGGVVQPGRSLRLSCAASGFTFSAYAMNWIRQPPGKGLEWIGLIYGSGHEFYASWAEERVTISVDTSKNQFSLKLSSVTAADTAVYYCARGRSKNYVSGFHLWGQGTLVTVSS VL: DIQMTQSPSSLSASVGDRVTITCQASQILHDKKNLAWYQQKPGQPPKLLIYQASQLESGVPSRFSGSGSGTDFTLTISSLQPEDFATYYCHGEFSYESADLNQFGQGTKVEIKR"

# Source: US20240287163A1 (Chugai, published 2024)
